The nature of this data set: amyloid nucleation score (Sup35N fusion, yeast selection) (log enrichment); library NNK1; higher = more nucleation; inactive = no reads after selection. In a few lines:
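After 24 hours of induction with 100 μM copper sulfate, psi-negative yeast expressing peptides of 20 random codons fused to Sup35N were grown for 7 days at 30°C on medium lacking adenine and uracil. Input and output plasmid inserts were sequenced with Illumina, and sequences with under 100 input reads were discarded. Scores for nucleation are the DiMSum log enrichment of output over input reads, centred on the mode score of non-aggregating sequences.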

In the supplement of paper PMC12042874 one finds amyloid nucleation score data, which are given here for 103 substances.

± gives the uncertainty stated by the source.

In turn, ALFVVCYRYFVESGTKWRRT displayed an amyloid nucleation score of -0.009 ± 0.28.

Turning to SCLAIRTSYCNEELSIESMQ, the amyloid nucleation score was -0.8 ± 0.55.

On to PYDYRI, for which the amyloid nucleation score is -0.503 ± 0.46.

On to AVCDKVLRSVEWIFPGLNDS, for which the amyloid nucleation score is -0.496 ± 0.51.

LNWMCTNWAMFFYTQVILQY had an amyloid nucleation score of -0.488 ± 1.1.

GMYLYIPLSITFTVEHTVVA came in with an amyloid nucleation score of 5.02 ± 0.093.

NYYLVCCCKREQRLCTVGIT displayed an amyloid nucleation score of 6.831 ± 0.064.

Substance AAMYSLICNPI displayed an amyloid nucleation score of 0.518 ± 0.3.

In the case of LLLYPRMGDRGTYYGMSGIR, the amyloid nucleation score was -1.01 ± 2.7.

In turn, CVMNLYGGMPHAGRWTGF registered an amyloid nucleation score of 4.33 ± 0.11.

The substance ACWFMCFYRFPAAWY showed an amyloid nucleation score of 0.079 ± 0.3.

In turn, SIGVGCGEVCFLYRSEPIFV yielded an amyloid nucleation score of -0.04 ± 0.31.

In the case of GFDIMYLILTPSCPATQSGM, the amyloid nucleation score entry was “inactive”.

GKTISGL displayed an amyloid nucleation score of 0.239 ± 0.44.

Substance NYRISAYCDSHVRRLPEYMF gave an amyloid nucleation score of 0.175 ± 0.59.

Substance RLFHIGGRGVRYYRLDVAMH came in with an amyloid nucleation score of -0.264 ± 1.2.

In turn, TKWTGVFIWSLKAD displayed an amyloid nucleation score of -0.051 ± 0.84.

Take RAVGSDWGKVVFLLMNSEES: the amyloid nucleation score came out at 0.212 ± 0.31.

For the substance VFTACVCGRVEDISDCVPAL, the amyloid nucleation score is -0.071 ± 0.76.

Turning to STGPAFDSKGVSTAMSRASF, the amyloid nucleation score entry is “inactive”.

DCCGFNFYWISPRFHLRECL came in with an amyloid nucleation score of 0.831 ± 0.27.

In turn, DIWDTAAAPGCRCRGNS came in with an amyloid nucleation score of -0.363 ± 1.5.

As to TIFAWAKHGQSNTVSRLGGF, the amyloid nucleation score is 0.118 ± 0.44.

Turning to IICSSM, the amyloid nucleation score entry was “inactive”.

Take DNRDYVALSFPRKLKWCYIS: the amyloid nucleation score was -0.834 ± 0.25.

Consider ESHRRR, for which the amyloid nucleation score was determined as 0.569 ± 0.62.

In turn, AYCVH registered an amyloid nucleation score of 0.202 ± 0.59.

In turn, MYINGWYWTDGFIVNYQWMG registered an amyloid nucleation score of 0.626 ± 0.55.

For RTGRAYLWGSWSLEHHNLGG, the amyloid nucleation score result was “inactive”.

In turn, TYIFVIPHLVRSTDWTLFAE came in with an amyloid nucleation score of 0.017 ± 0.33.

On to GNWAVGSIRDSCICGYIELR, for which the amyloid nucleation score came to 6.915 ± 0.046.

VRVFGVTEYNRSCSI yielded an amyloid nucleation score of -0.847 ± 1.1.

As to YNHIEFGWCLLVGFVMRKSR, the amyloid nucleation score is 3.53 ± 0.12.

Turning to RRTTSMERYCR, the amyloid nucleation score came out at 0.291 ± 0.43.

The substance AKMIDR yielded an amyloid nucleation score of 0.399 ± 0.5.

Turning to GQFAFNMKNSLMNVVGVILE, the amyloid nucleation score entry is “inactive”.

With YQKTNPMELWLPSL, the amyloid nucleation score result is “inactive”.

ESMDGFARR returned an amyloid nucleation score of 0.654 ± 0.67.

For the substance SAWSGR, the amyloid nucleation score is 0.104 ± 0.3.

LSVQTWFGLSACYTGQAKYS had an amyloid nucleation score of 0.171 ± 1.2.

The substance VWMVMSYPDHTLVLLLTG had an amyloid nucleation score of -1.33 ± 0.57.

YLRLKKMSVGVWGVIDRCLV: the amyloid nucleation score came to 0.995 ± 0.51.

With HIFHCGNRRFHTIKM, the amyloid nucleation score result was “inactive”.

On to TPCLKQLLLSSLILEGP, for which the amyloid nucleation score is -0.6 ± 0.64.

RKSDEGMKSPIGREIMGKSM displayed an amyloid nucleation score of 0.431 ± 0.9.

On to SSLQFEMVFGTCYCRKSYSR, for which the amyloid nucleation score came out at 4.19 ± 0.082.

Regarding TAIWTSIIDL, the amyloid nucleation score was 0.96 ± 0.42.

On to NLIWMVKYCYIIFRIPTTCL, for which the amyloid nucleation score is 1.77 ± 0.42.

With MRLCPEPASKSDMPFSRDLR, the amyloid nucleation score is 0.268 ± 1.4.

The substance HLRFYAYRGMGRPNFFLCFE displayed an amyloid nucleation score of 0.183 ± 0.38.

In turn, YKVNNFKTFSLWNMFLDSNC yielded an amyloid nucleation score of 4.47 ± 0.064.

For FVKGRGNKTQVWHESVYKDA, the amyloid nucleation score was -0.203 ± 0.54.

On to RQIGTAFSDYLHGWCVFSFR, for which the amyloid nucleation score is 3.88 ± 0.11.

Substance NSDLWIGVCAVLSGLMTIIG had an amyloid nucleation score of 0.509 ± 0.64.

Substance NNGGASVGFWRMPCHWTRMH showed an amyloid nucleation score of -0.371 ± 0.59.

In turn, GPDRCDRWEPRCCAKSRRER displayed an amyloid nucleation score of -0.061 ± 0.42.

In turn, TRNLMPSRSFG registered an amyloid nucleation score of 2.08 ± 0.28.

Consider TFADNF, for which the amyloid nucleation score was -1.28 ± 1.1.

Consider YSKIRNKSRFRNLSASFQRC, for which the amyloid nucleation score entry is “inactive”.

SSILDHLAAFVRRWFVYALL returned an amyloid nucleation score of -0.591 ± 0.98.

YGDGMGPWCYCWAFAEPRRS gave an amyloid nucleation score of 0.114 ± 1.1.

Consider LDQIQIFSEIGVFRLVCQHI, for which the amyloid nucleation score was -0.164 ± 0.64.

TWLYEIHTILMIGGIMRKRG displayed an amyloid nucleation score of 0.734 ± 0.45.

YGGLEVSLGALQNVGVKPYT gave an amyloid nucleation score of -0.189 ± 1.1.

In turn, PVFGGNGWLGYGWNWRSHLG yielded an amyloid nucleation score of 0.383 ± 0.49.

Regarding IYTSLCQRGGMVMHESKYCC, the amyloid nucleation score is 0.624 ± 0.65.

Take SFMVFYNLVCLHMMSNFVAL: the amyloid nucleation score turned out to be 0.377 ± 0.68.

MRVTFHYFS displayed an amyloid nucleation score of -0.434 ± 1.7.

Turning to NDHNNLWVNFVGT, the amyloid nucleation score is 0.575 ± 0.6.

Take VHATLLNHA: the amyloid nucleation score was 0.898 ± 0.64.

LYDRCYGIRSSAIEGEEYKR had an amyloid nucleation score of 0.806 ± 0.97.

As to HDSLKFVKQSFFCPEVYIPG, the amyloid nucleation score is -0.596 ± 0.47.

Substance LVSMRMAFCPWLVRKGIPL registered an amyloid nucleation score of 0.206 ± 1.6.

The substance TSFCIETSGSILIELYGCWA showed an amyloid nucleation score of -0.356 ± 0.5.

Substance DSPNVVQLLKYTLRYEARLG registered an amyloid nucleation score of 0.877 ± 0.16.

FVSNYYYV: the amyloid nucleation score is 1.95 ± 0.17.

The substance SSCLEGCKSEACGWSNDGPG gave an amyloid nucleation score of -0.048 ± 0.76.

As to AVEGCVFCWIRCVIRFLV, the amyloid nucleation score is -0.642 ± 0.69.

The substance FLSRCGWAYVMV displayed an amyloid nucleation score of -0.493 ± 0.26.

Consider VFSNLELTFDRGCFPVRCLR, for which the amyloid nucleation score was -0.482 ± 0.35.

As to VNWVLIERWVVS, the amyloid nucleation score is -1.13 ± 0.85.

As to FGLYFRKISGLSPN, the amyloid nucleation score was -0.211 ± 0.67.

Consider LSSFMAAGVSLMCNTFLIWH, for which the amyloid nucleation score stood at 0.729 ± 0.51.

QTFMHSCEFRVN: the amyloid nucleation score was -0.347 ± 0.66.

As to SFWNSLV, the amyloid nucleation score was determined as 0.468 ± 1.2.

Take GVDHIGLGTEEYNQSYLGSG: the amyloid nucleation score was -0.505 ± 0.53.

CKMWTE showed an amyloid nucleation score of 0.405 ± 0.75.

The substance SNRGRNLGSYCVGNYFGCFT yielded an amyloid nucleation score of -0.224 ± 1.7.

As for SHPSKRLRTSKNVCACATNP, the amyloid nucleation score was -0.12 ± 0.4.

CFPTWYLLLDCWVQFPAHTK registered an amyloid nucleation score of 2.56 ± 0.16.

In turn, YCAKNCEGFGRVYISG gave an amyloid nucleation score of -2.42 ± 2.7.

VNKLLS showed an amyloid nucleation score of -0.04 ± 0.28.

Consider NWTIHVDNSGHVIRINTHYW, for which the amyloid nucleation score was found to be 6.72 ± 0.074.

Turning to QLEFVWLILTYHEGHYRIGK, the amyloid nucleation score entry is “inactive”.

For AYILRWFFTSECRSVQSTSK, the amyloid nucleation score was -0.105 ± 0.45.

Substance AMGARMFRNYRTACAHLLQW yielded an amyloid nucleation score of 0.019 ± 1.

For LQGCGYYKFGITEEWH, the amyloid nucleation score turned out to be 0.415 ± 0.78.

TRWQITDPYSPCTWSCSWTQ: the amyloid nucleation score was found to be 0.906 ± 1.

Substance ASPMVRISYLNDHKQLKKF displayed an amyloid nucleation score of -0.414 ± 0.28.

Substance RDLTKSDLMSVNAYMVIYRW came in with an amyloid nucleation score of 0.382 ± 0.31.

WSDYVDNPSVSARRSRQFRL registered an amyloid nucleation score of -1.21 ± 1.6.

DFLDNVFVTSECHVN yielded an amyloid nucleation score of 0.255 ± 0.6.

With WHQEWRKWADKGLAIRT, the amyloid nucleation score amounted to 0.836 ± 0.97.
